The target of the test is T1, GPVI-Fc2 (GPVI dimer) (Homo sapiens, UniProt Q9HCN6).
T1 sequence (Q9HCN6 21-214 limits assumed): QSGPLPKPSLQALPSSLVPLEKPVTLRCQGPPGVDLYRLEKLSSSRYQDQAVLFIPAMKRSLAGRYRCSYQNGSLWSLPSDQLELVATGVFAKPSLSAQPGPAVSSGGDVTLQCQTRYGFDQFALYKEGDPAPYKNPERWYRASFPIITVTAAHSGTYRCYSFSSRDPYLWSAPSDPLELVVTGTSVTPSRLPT
The test is described as follows: ELISA: GPVI dimer binding to immobilized collagenous substrates.

B1: Collagen type III: Pepsin-treated bovine type III collagen from Koken (protein)
chain: EYEAYDVKSGVAGGGIAGYPGPAGPPGPPGPPGTSGHPGAPGAPGYQGPPGEPGQAGPAGPPGPPGAIGPSGKDGESGRPGRPGPRGFPGPPGMKGPAGMPGFPGMKGHRGFDGRNGEKGEPGAPGLKGENGVPGEDGAPGPMGPRGAPGERGRPGLPGAAGARGNDGARGSDGQPGPPGPPGTAGFPGSPGAKGEVGPAGSPGSSGAPGQRGEPGPQGHAGAPGPPGPPGSDGSPGGKGEMGPAGIPGAPGLIGARGPPGPPGTNGVPGQRGAAGEPGKNGAKGDPGPRGERGEAGSPGIAGPKGEDGKDGSPGEPGANGLPGAAGERGVPGFRGPAGANGLPGEKGPPGDRGGPGPAGPRGVAGEPGRNGLPGGPGLRGIPGSPGGPGSNGKPGPPGSQGETGRPGPPGSPGPRGQPGVMGFPGPKGNDGAPGKNGERGGPGGPGPQGPAGKNGETGPQGPPGPTGPSGDKGDTGPPGPQGLQGLPGTSGPPGENGKPGEPGPKGEAGAPGIPGGKGDSGAPGERGPPGAGGPPGPRGGAGPPGPEGGKGAAGPPGPPGSAGTPGLQGMPGERGGPGGPGPKGDKGEPGSSGVDGAPGKDGPRGPTGPIGPPGPAGQPGDKGESGAPGVPGIAGPRGGPGERGEQGPPGPAGFPGAPGQNGEPGAKGERGAPGEKGEGGPPGAAGPAGGSGPAGPPGPQGVKGERGSPGGPGAAGFPGGRGPPGPPGSNGNPGPPGSSGAPGKDGPPGPPGSNGAPGSPGISGPKGDSGPPGERGAPGPQGPPGAPGPLGIAGLTGARGLAGPPGMPGARGSPGPQGIKGENGKPGPSGQNGERGPPGPQGLPGLAGTAGEPGRDGNPGSDGLPGRDGAPGAKGDRGENGSPGAPGAPGHPGPPGPVGPAGKSGDRGETGPAGPSGAPGPAGSRGPPGPQGPRGDKGETGERGAMGIKGHRGFPGNPGAPGSPGPAGHQGAVGSPGPAGPRGPVGPSGPPGKDGASGHPGPIGPPGPRGNRGERGSEGSPGHPGQPGPPGPPGAPGPCCGAGGVAAI
B1: the “Kd (monomer)/Kd (dimer)” value (binding to collagenous substrates) is listed as 236.7. For the same molecule, where the note is “mean ± S.E., n = 4-12 as printed”, the “Hill coefficient for dimer binding” value worked out at 1.16 ± 0.11.

The values above are taken from paper PMC3436176 (The Journal of Biological Chemistry, 2012).
